Laboratory results published in the supplement of paper PMC7877785.
± gives the uncertainty stated by the source.

Assay: self-splicing fitness, log relative to wild type (ln ratio); higher = more splicing; Tetrahymena group I intron in knt gene, E. coli kanamycin selection, DiMSum; sequences stand for … in CUCUCU…GGAGGGAAAAGUUAUCAGGCAUGCACCUGGUAGCUAGUCUUUAAACCAAUAGAUUGCAUCGGUUUAAAAGGCAAGACCGUCAAAUUGCGGGAAAGGGGUCAACAGCCGUUCAGUACCAAGUCUCAGGGGAAACUUUGAGAUGGCCUUGCAAAGGGUAUGGUAAUAAGCUGACGGACAUGGUCCUAACCACGCAGCCAAGUCCUAAGUCAACAGAUCUUCUGUUGAUAUGGAUGCAGUUCACAGACUAAAUGUCGGUCGGGGAAGAUGUAUUCUUCUCAUAAGAUAUAGUCGGACCUCUCCUUAAUGGGAGCUAGCGGAUGAAGUGAUGCAACACUGGAGCCGCUGGGAACUAAUUUGUAUGCGAAAGUAUAUUGAUUAGUUUUGGAGUACUCGUGGUCG
Outline: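 DiMSum derived fitness as the error-weighted combination of fold changes across replicates, kanamycin versus no kanamycin, normalised to wild type. E. coli BL21(DE3) held the library, which randomised all eight P1ex-region intron nucleotides within the knt kanamycin-resistance gene on pET-22b(+). Six replicate transformations grew overnight at 37°C or 30°C on LB agar with or without 25 μg/mL kanamycin, also containing 100 μg/mL carbenicillin, 50 μM IPTG and 0.2% rhamnose, and pooled colonies were amplicon-sequenced on an Illumina HiSeq 2500.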

Row | Sequence | self-splicing fitness (ln) (30 °C) | self-splicing fitness (ln) (37 °C)
1 | CGACAGCAAUAUUACGCGCU | -3.43 ± 0.12 | -1.91 ± 0.13
2 | AGCGAGCAAUAUUACGGGAC |  | -2.99 ± 0.38
3 | AACAAGCAAUAUUACGAGUC | -3.19 ± 0.12 | -1.89 ± 0.14
4 | CGUAAGCAAUAUUACGAACC | -0.935 ± 0.24 | -1.46 ± 0.24
5 | UUCGAGCAAUAUUACGGUCA | -1.71 ± 0.15 | -1.26 ± 0.13
6 | GGGGAGCAAUAUUACGAGUU | -3.08 ± 0.45 | 
7 | GACCAGCAAUAUUACGGCAA | -0.359 ± 0.067 | -0.32 ± 0.078
8 | CCAAAGCAAUAUUACGUUUU | -3.91 ± 0.14 | -2.75 ± 0.17
9 | AAGGAGCAAUAUUACGAGUA | -3.6 ± 0.43 | -3.21 ± 0.4
10 | UCAGAGCAAUAUUACGAAGA |  | -2.32 ± 0.42
11 | AGUAAGCAAUAUUACGAUUU | -0.313 ± 0.1 | -0.0587 ± 0.13
12 | CCACAGCAAUAUUACGCUGC | -3.06 ± 0.17 | -2.72 ± 0.28
13 | AACAAGCAAUAUUACGGUAU | -1.61 ± 0.075 | -1.16 ± 0.098
14 | AUUAAGCAAUAUUACGAGAC | -3.39 ± 0.48 | -1.46 ± 0.27
15 | AUGUAGCAAUAUUACGCAGG | -2.06 ± 0.22 | -1.7 ± 0.19
16 | UGCUAGCAAUAUUACGAUGU | -4.19 ± 0.46 | -2.59 ± 0.38
17 | UCGUAGCAAUAUUACGUUUU | -2.58 ± 0.17 | -3.25 ± 0.23
18 | AAGGAGCAAUAUUACGCCCC | -1.19 ± 0.47 | -1.42 ± 0.46
19 | CCCCAGCAAUAUUACGCGCA | -3.61 ± 0.27 | -1.36 ± 0.21
20 | CAUCAGCAAUAUUACGGGUG | -3.28 ± 0.14 | -2.71 ± 0.2
21 | ACACAGCAAUAUUACGCAAC | -5.33 ± 0.36 | -1.88 ± 0.17
22 | CCCGAGCAAUAUUACGGAAC | -2.51 ± 0.31 | -2.57 ± 0.34
23 | AAAGAGCAAUAUUACGGGCC | -2.09 ± 0.3 | -1.86 ± 0.41
24 | GAAGAGCAAUAUUACGCGCG | -2.21 ± 0.3 | -1.36 ± 0.22
25 | GAUUAGCAAUAUUACGGUUC | -3.38 ± 0.18 | -1.96 ± 0.23
26 | AUCCAGCAAUAUUACGAUCA | -1.43 ± 0.12 | -1.09 ± 0.14

Row | Sequence | self-splicing fitness (ln) (30 °C) | self-splicing fitness (ln) (37 °C)
27 | GCCGAGCAAUAUUACGCGGG | -4.07 ± 0.2 | -2.3 ± 0.18
28 | AUGUAGCAAUAUUACGACUA | -0.419 ± 0.27 | -0.536 ± 0.31
29 | ACAAAGCAAUAUUACGUGAC | -3.4 ± 0.11 | -1.37 ± 0.092
30 | UACCAGCAAUAUUACGAAAA | -1.43 ± 0.17 | -1.11 ± 0.13
31 | ACGUAGCAAUAUUACGCUCG | -2.16 ± 0.12 | -0.0752 ± 0.15
32 | UGCAAGCAAUAUUACGACCG | 0.118 ± 0.086 | 0.563 ± 0.13
33 | UUUGAGCAAUAUUACGUGUU | -2.61 ± 0.32 | -3.3 ± 0.33
34 | GGUGAGCAAUAUUACGACAA | -1.2 ± 0.26 | -0.76 ± 0.3
35 | UAUCAGCAAUAUUACGAGAC | -2.38 ± 0.33 | -1.75 ± 0.44
36 | GUGCAGCAAUAUUACGGGAG | -2.01 ± 0.12 | -1.44 ± 0.13
37 | GGGUAGCAAUAUUACGUAAU | -0.889 ± 0.085 | -0.379 ± 0.11
38 | GAUGAGCAAUAUUACGUCGG |  | -2.87 ± 0.34
39 | CGCUAGCAAUAUUACGUGCU | -1.82 ± 0.16 | -1.63 ± 0.18
40 | CGAUAGCAAUAUUACGCCCU | -0.983 ± 0.2 | 0.695 ± 0.25
41 | GAAAAGCAAUAUUACGCCGG | -1.34 ± 0.18 | -1.2 ± 0.17
42 | UUGGAGCAAUAUUACGAGUG | -4.05 ± 0.33 | -3.04 ± 0.24
43 | AACCAGCAAUAUUACGUCGC | -2.34 ± 0.077 | -0.689 ± 0.085
44 | CUCGAGCAAUAUUACGGUGA | -2.66 ± 0.19 | -0.793 ± 0.16
45 | UUUCAGCAAUAUUACGCGCU | -3.54 ± 0.5 | 
46 | ACCAAGCAAUAUUACGCGGC | -3.19 ± 0.25 | -2.39 ± 0.21
47 | UACAAGCAAUAUUACGUGUG | -2.96 ± 0.11 | -1.7 ± 0.1
48 | AAAGAGCAAUAUUACGCUUU | -3.18 ± 0.23 | -3.68 ± 0.36
49 | CCAGAGCAAUAUUACGGCUC | -2.69 ± 0.23 | -2.76 ± 0.26
50 | CCACAGCAAUAUUACGCUUU | -4.05 ± 0.25 | -2.18 ± 0.19
51 | AAAUAGCAAUAUUACGUUAA | -2.87 ± 0.2 | -2.1 ± 0.24
52 | GGGAAGCAAUAUUACGAGCA | -2.18 ± 0.32 | -0.522 ± 0.18

Row | Sequence | self-splicing fitness (ln) (30 °C) | self-splicing fitness (ln) (37 °C)
53 | UCCUAGCAAUAUUACGUACA | -2.45 ± 0.27 | -0.735 ± 0.16
54 | GUCUAGCAAUAUUACGUAUA | -1.41 ± 0.13 | -0.887 ± 0.12
55 | AAAUAGCAAUAUUACGCGCA | -0.264 ± 0.092 | -0.103 ± 0.11
56 | CAAGAGCAAUAUUACGCACG | -1.96 ± 0.11 | -0.942 ± 0.12
57 | ACGAAGCAAUAUUACGGGGU | -3.47 ± 0.15 | -2.33 ± 0.17
58 | ACAGAGCAAUAUUACGACUA | -1.17 ± 0.48 | -1.17 ± 0.42
59 | GCGUAGCAAUAUUACGUGCU | -2.05 ± 0.16 | -2.44 ± 0.27
60 | GACCAGCAAUAUUACGUCUU | 0.335 ± 0.05 | 0.369 ± 0.068
61 | AUACAGCAAUAUUACGGAGU | -1.72 ± 0.085 | -1.72 ± 0.11
62 | UGUCAGCAAUAUUACGGUCG | -0.443 ± 0.068 | 0.559 ± 0.11
63 | GUUGAGCAAUAUUACGUGGC | -3.09 ± 0.25 | -2.17 ± 0.28
64 | UAACAGCAAUAUUACGAGUG | -0.621 ± 0.038 | -0.34 ± 0.056
65 | GACAAGCAAUAUUACGCCUC | -2.68 ± 0.14 | -2.78 ± 0.28
66 | CGUCAGCAAUAUUACGAAUU | -2.82 ± 0.2 | -0.915 ± 0.14
67 | AACAAGCAAUAUUACGCAAU | -1.37 ± 0.096 | -1.09 ± 0.12
68 | CGUUAGCAAUAUUACGGCGG | -0.628 ± 0.1 | -0.396 ± 0.12
69 | AUGCAGCAAUAUUACGGAGC | -2.6 ± 0.15 | -2.99 ± 0.18
70 | GUCAAGCAAUAUUACGUAAC | -1.33 ± 0.17 | -0.545 ± 0.14
71 | AAGGAGCAAUAUUACGAGAG | -1.62 ± 0.17 | -2.58 ± 0.34
72 | GGUGAGCAAUAUUACGAGCC |  | -1.52 ± 0.43
73 | UCGCAGCAAUAUUACGGUUC | -3.65 ± 0.43 | -1.66 ± 0.3
74 | GGUUAGCAAUAUUACGCGGU | -2.85 ± 0.49 | -2.36 ± 0.35
75 | UGUGAGCAAUAUUACGUCUA | -1.51 ± 0.16 | -1.36 ± 0.15
76 | AUAGAGCAAUAUUACGUUCA | 0.258 ± 0.11 | -0.633 ± 0.12
77 | UUUUAGCAAUAUUACGUCUA | -0.819 ± 0.23 | -0.292 ± 0.2
78 | GAAAAGCAAUAUUACGUUGG | -3.55 ± 0.19 | -2.16 ± 0.16
